# Experimental data as given in the supplement of paper PMC12042874.
# ± gives the uncertainty stated by the source.
# Test: amyloid nucleation score (Sup35N fusion, yeast selection) (log enrichment); library NNK2; higher = more nucleation; inactive = no reads after selection
# Outline: (§1)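 The nucleation score is the DiMSum log enrichment of output over input reads, centred on the mode score of non-aggregating sequences. Only sequences with 100 or more input reads were scored, using Illumina sequencing of input and output plasmid inserts. Psi-negative yeast expressing Sup35N fused to peptides of 20 random codons were induced 24 hours with 100 μM copper sulfate and grown 7 days at 30°C on medium lacking adenine and uracil.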
row,Substance,amyloid nucleation score
1,MYCLFFFMWGCYYYTIFRSV,inactive
2,FNDRHVCHREKFSRELGFCS,-0.479 ± 1
3,SLRIYGYMDRKSPKESSNFR,0.975 ± 0.37
4,VLFAWSASDVIVV,0.639 ± 0.33
5,VHCREWEIIRMINLSRKQRV,-0.419 ± 0.46
6,LNVDP,inactive
7,LNLFFLCGYPYYRNVGCMGH,7.195 ± 0.067
8,NLRPAFHDMDKQCGG,0.045 ± 0.63
9,KLLFLLVVVLADQMSCLGTS,1.1 ± 0.36
10,VYLFDTYGCSEQFHSVVGYK,-0.916 ± 0.76
11,ICLHHDYGSGWWIIQSAWQI,2.95 ± 0.076
12,CCCGRMTSVHVDKPDLYLPL,-0.047 ± 1.1
13,GGSVMQILGWFLQAV,0.683 ± 0.42

# Test: amyloid nucleation score (Sup35N fusion, yeast selection) (log enrichment); library NNK3; higher = more nucleation; inactive = no reads after selection
# Outline: as §1
row,Substance,amyloid nucleation score
1,YKNEMGTIPCRRVTSNCLSY,inactive
2,FFANKYSLFAVVTMLANFLY,inactive
3,RYNGTGIKYWKTY,inactive
4,FNANINNNGIRFRREVNLCW,inactive
5,MCEGLEFLNTK,inactive
6,IERGSDFLLHAMAYSFIGCL,-0.416 ± 1.1
7,STIISWWSTVIYFKLI,inactive
8,SSSLVRCHG,inactive
9,LSDLEDWRNYRWSKEDLKVE,inactive
10,EKKCIQRRFFYSVFNLMLSF,-0.714 ± 1
11,LHGHTWSWSLDWLSYMTAVQ,inactive
12,RVSYKICKERKF,inactive
13,NVYNMYS,0.945 ± 0.22
14,SNIGVGKTYHRCTFFFWLIC,0.989 ± 0.24
15,LSMFTFCRYPGCQRLDRKPY,1.23 ± 0.1
16,FLVNDYFV,inactive
17,WNFGFGVWRFTAGG,1.33 ± 0.067
18,FCFFSVSLDVLVHSGIC,0.417 ± 0.19
19,FSFQQSWVSY,inactive
20,TADRQGYSFEC,inactive
21,SVKTGYVDRPNLRTTFYGCL,inactive
22,CCMVYGGYMM,inactive

row,Substance,amyloid nucleation score
1,SMNRV,inactive
2,RIRMSCYLIVYIGIACGYIS,inactive
3,SASVGFGHSSWNPIIGMIRI,inactive
4,CPVTIYSVYNTASVKALFLR,inactive
5,CAKDMMCRVYMSLLLHLGVD,inactive
6,EKITFGECWKACSAF,inactive
7,HKMRRAYLKECFVWDYVSCD,inactive
8,SDNELMIAFESG,inactive
9,SNAFSGLRQLPPSNDSLCKG,inactive
10,VLLSNNRILYETFL,inactive
11,TIFMWCV,1.64 ± 0.097
12,QDTLYMLDPGG,-0.318 ± 0.7
13,IYKSTFFKVRTSGPGRHFGF,0.186 ± 0.37
14,AFGLVLLSTLHNASIIPRWF,inactive
15,SWGAWIGLWFRTGVLLDESA,inactive
16,FYSIPMLRLVVNNVLKLTAI,inactive
17,ILIWRSGCYWTSPTEGVFRF,0.572 ± 0.2
18,YCFDI,inactive
19,CNHLSSTCFT,inactive
20,VLVICWFRDDGYSVFLCCQT,inactive
21,LMKMKRFLQLWTIGDGASKS,1.81 ± 0.09
22,CTSGLVVGLVFLMI,-0.716 ± 1.4

row,Substance,amyloid nucleation score
1,ALMRYVFPKWRDCAAMWDSL,inactive
2,EMNLLFIVDAIELCPVLQAR,inactive
3,MTSQSMKVISWCDRHRQMNS,1.03 ± 0.13
4,CLGMSFLRRMGTMSAYPTIK,inactive
5,HISCMCLIYIV,2.24 ± 0.088
6,ILGRSSISFDLM,inactive
7,NFLNCVFRYIYD,2.54 ± 0.067
8,YLVSYFNRGQSAFRFWDKFA,inactive
9,FMVSRMYEWCVCSVQCLMLF,inactive
10,HFMFGYGCTRSGQTRSPGFN,1.88 ± 0.11
11,TGYHGHTPFSYDQYEFHLRV,inactive
12,SYRGSRRRSFTSYLCEFEGM,inactive
13,LFQKKFILQVYNCLFSYYFN,1.18 ± 0.096
14,IYSMYQCLFVEHFS,inactive
15,RFQFIEFSSTVSSGGWTFFI,-0.165 ± 0.39
16,LLIKAAFGKMVRCKFRLIEW,-0.454 ± 1.4
17,VATKQVVQGLMSPNN,inactive
18,IMYLRETGTK,inactive
19,ASYLNYSFVKIETAVSSNPC,0.609 ± 0.11
20,INVDGKNNPSRREKTISMGG,inactive
21,NCDNSNGYSTHEIEDRSTLR,inactive
22,IIEPYTFCFRICVWGGEWIV,inactive

row,Substance,amyloid nucleation score
1,EFITSYMFSFVYVKNLWCKY,inactive
2,IYPVNFGWLLGFCAHPAIYD,inactive
3,VLLYDECMMFVNSLMFTNSE,-0.501 ± 0.66
4,RVSNGPIIYRRMHAAGDNLT,inactive
5,SIMTSFRPFPTWRCG,-0.563 ± 0.57
6,WPAAQVNQIHYCVGLNNYTW,inactive
7,VNLEDGSGDSCKDNCNGERF,-0.821 ± 0.84
8,KRFTLFSMIYGRV,inactive
9,IMCYLSITRWKDM,inactive
10,CSLLGKMLTYNSDYGFQLNY,inactive
11,YFYFVTHRDELGMSGPVTWA,inactive
12,KFSTTFVTCSIVLVRILLDL,inactive
13,FCLFLSCGDKSILGA,inactive
14,RSGFAKMNAILLYFASFLL,inactive
15,INTNAYSGLEIYRYSTIAKG,inactive
16,ALPPSVF,inactive
17,GQWLYGWTRYVGPTI,inactive
18,RGVNKRKADVTRGCYSVVLN,inactive
19,YLMYSVESVRWTLIE,inactive
20,DILEVIDIF,inactive
21,SMLVELVFSLQTQSSGSSGR,-0.059 ± 0.43
22,GNSSII,inactive

row,Substance,amyloid nucleation score
1,LFKKVDTWSYLHGDTMLRGI,inactive
2,FESMGFHPRSVIYEYVCELN,inactive
3,ALEAFKRFNLYELGCKGIKV,inactive
4,SLKGVITSFVRNVFFNRAMY,inactive
5,PATMFI,inactive
6,SDGKQQLFKENS,inactive
7,SLVIAIHRAFLFMAGRSRVG,inactive
8,MYTISVKAMNGWYLSLKVGC,inactive
9,SPVMPMMFGNKRVPLITDLR,inactive
10,FFVYVEHRCSYNGRTSDIFY,-0.185 ± 0.51
11,FLTRFRDPT,-0.589 ± 0.9
12,MYVTIGASNKSYRLLFVARW,-0.368 ± 0.75
13,VGSLVHLGLGWIRTLLLYGV,inactive
14,YFKYTN,1.32 ± 0.15
15,SIFCGCLVLLTGNYLLICIS,1.13 ± 0.17
16,WRSKLLM,inactive
17,EGKARGDH,inactive
18,RWFLSWWIYFEVKPNDNSFF,inactive
